Laboratory results taken from US20150315275A1.

Key:
[1] = biological target: human B7-H4 expressed on cells (human) (UniProt Q7Z7D3); assay: saturation binding, flow cytometry on 624mel/B7-H4 cells; negative control used as background
[2] = biological target: human B7-H4 expressed on cells (human) (UniProt Q7Z7D3); assay: flow cytometry on 624mel/B7-H4 cells, negative control antibody; signal subtracted as background from all other points

human B7-H4 expressed on cells (human), sequence (Q7Z7D3 other isoform, or with tags, fused parts or gaps limits assumed): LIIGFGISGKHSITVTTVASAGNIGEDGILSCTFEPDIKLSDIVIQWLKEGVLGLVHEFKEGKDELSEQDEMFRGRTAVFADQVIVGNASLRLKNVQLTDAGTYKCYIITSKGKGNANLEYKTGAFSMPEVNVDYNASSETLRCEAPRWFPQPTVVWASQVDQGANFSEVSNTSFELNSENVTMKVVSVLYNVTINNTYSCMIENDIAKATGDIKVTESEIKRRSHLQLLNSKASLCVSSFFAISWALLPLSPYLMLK

- average signal (MFI) [1]: 245 MFI
- MFI (average background signal) [2]: 245 MFI
Substance: negative control antibody (anti-PD-1 antibody)
